Key:
[1] = molecular target: Bovine serum albumin (BSA) (Bos taurus, UniProt P02769 P02769:25-607); assay: impedance; 20 ug/ml BSA in PBS, 30 min, Ret unchanged; conditions: tags: Sigma-Aldrich; label: 5'-amine, amide-coupled to MPA on gold electrode
Method: (§1) A conventional three-electrode cell was used for performing electrochemical impedance spectroscopy (EIS). Ag/AgCl and a platinum (Pt) plate were respectively used as a reference electrode and an opposite electrode. In every modification and detection stage, an operating electrode was detected by EIS in a 2 mM Fe(CN)6^{3-/4-}(1:1)/PBS solution. An amplitude-sine wave of about 10 mV was applied in a frequency range of about 0.1 Hz to 100 kHz.
EIS data was measured to investigate specificities of the aptamer with respect to other proteins existing blood, such as BSA and IgG. The EIS data of the aptamer-attached electrode was measured (block line), and then the aptamer-attached electrode was immersed in 20 μg/ml concentrations of BSA solution and IgG solution each for 30 minutes. […] Then, when the aptamer-attached electrode was immersed in a solution in which 30 ng/ml HER2 was added to a 20 μg/ml BSA/IgG solution for 30 minutes, the Rₑₜ value increased.

HER2 (ErbB2) = HER2 (ErbB2) (UniProt P04626 P04626:23-652); assay: electrochemical impedance on Au/MPA/aptamer electrode; dRet linear 5-50 ng/ml (y=18.97x+160.2, R2=0.99882), saturates 50-500 ng/ml; PBS, 30 min; conditions: tags: R&D Systems; label: 5'-amine, amide-coupled to MPA on gold electrode
Method: as §1
After immobilization of the NH₂-ssDNA, the modified gold electrode was incubated in a series of HER2/PBS solutions of different concentrations for 30 minutes each, and then washed with DI water. A series of HER2/PBS solutions of 5 ng/ml to 500 ng/ml concentrations were fabricated in order to confirm a range of soluble concentration.
After the aptamer (NH₂-ssDNA) was immobilized, the modified gold electrode was incubated in a series of HER2/PBS solutions of a range 5.0 to 50 ngmL⁻¹. The modified gold electrode was detected by EIS after each incubation. The difference of electron-transfer resistance ΔRₑₜ between the aptamer-modified gold electrode and the HER2-incubated gold electrode was obtained from a signal formed by a reaction between the immobilized aptamer and the HER2.

Chain of Bovine serum albumin (BSA) (P02769 25-607, one chain of several): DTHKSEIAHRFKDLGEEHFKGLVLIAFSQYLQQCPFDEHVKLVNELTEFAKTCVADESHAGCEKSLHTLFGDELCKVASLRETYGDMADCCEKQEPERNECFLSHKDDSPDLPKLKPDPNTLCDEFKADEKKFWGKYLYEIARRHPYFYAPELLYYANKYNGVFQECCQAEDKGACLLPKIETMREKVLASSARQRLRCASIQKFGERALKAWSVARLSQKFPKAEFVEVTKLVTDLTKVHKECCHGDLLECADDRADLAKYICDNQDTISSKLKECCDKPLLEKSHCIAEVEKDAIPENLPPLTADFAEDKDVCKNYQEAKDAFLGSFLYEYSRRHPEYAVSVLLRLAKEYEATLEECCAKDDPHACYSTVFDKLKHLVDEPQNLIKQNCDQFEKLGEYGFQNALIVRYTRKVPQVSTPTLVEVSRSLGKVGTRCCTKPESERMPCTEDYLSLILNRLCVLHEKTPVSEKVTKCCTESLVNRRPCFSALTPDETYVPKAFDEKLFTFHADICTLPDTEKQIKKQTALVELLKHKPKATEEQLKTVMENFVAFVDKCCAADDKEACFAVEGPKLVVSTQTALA

B1: HER2 NH2-aptamer (ssDNA)
DNA: CTTCTGCCCGCCTCCTTCCTGGGGCCTGGATACGGATTGGTAAGGATTAGTAGGGGGCATAGCTGGAGACGAGATAGGCGGACACT
modifications: 5'-amino modifier C6
binding result [1]: no binding | binding result (HER2 (ErbB2)): binds

From patent publication US20130270124, “BIOSENSOR ELECTRODE FOR HER2 DETECTION, A METHOD FOR PRODUCING IT, A METHOD FOR REGENERATING IT” (RESEARCH & BUSINESS FOUNDATION SUNGKYUNKWAN UNIVERSITY, published 2013)
